Assay results from patent publication US12269859B2, “Synthetic immune receptors and methods of use thereof” (Angeles Therapeutics, Inc., priority 2016, dated 2025).

B1: 041816-A03 (protein)
chain: MALPVTALLLPLALLLHAARPDIQMTQSPSSLSASLGERVSLTCRATQELSGYLSWLQQKPDGTIKRLIYAASTLDSGVPKRFSGNRSGSDYSLTISSLESEDFADYYCLQYAIYPYTFGGGTKLEIKLEDLKNVFPPEVAVFEPSEAEISHTQKATLVCLATGFYPDHVELSWWVNGKEVHSGVSTDPQPLKEQPALNDSRYCLSSRLRVSATFWQNPRNHFRCQVQFYGLSENDEWTQDRAKPVTQIVSAEAWGRADCGFTSESYQQGVLSATILYEILLGKATLYAVLVSALVLMAMVKRKDSRGRAKRSGSGATNFSLLKQAGDVEENPGPTSMDWIWRILFLVGAATGAHSFEEVQLQQSGPELVKPGASVKMSCKASGYTFTSYFIHWVKQKPGQGLEWIGFINPYNDGSKYNEKFKGKATLTSDKSSSTAYMELSSLTSEDSAVYYCTRDDGYYGYAMDYWGQGTSVTVSSTREQKLISEEDGSGTPFPSLAPPIMLLVDGKQQMVVVCLVLDVAPPGLDSPIWFSAGNGSALDAFTYGPSPATDGTWTNLAHLSLPSEELASWEPLVCHTGPGAEGHSRSTQPMHLSGEASTARTCPQEPLRGTPGGALWLGVLRLLLFKLLLFDLLLTCSCLCDPAGPLPSPATTTRLRALGSHRLHPATETGGREATSSPRPQPRDRRWGDTPPGRKPGSPVRAKRSGSGVKQTLNFDLLKLAGDVESNPGPSRGHMTEYKPTVRLATRDDVPRAVRTLAAAFADYPATRHTVDPDRHIERVTELQELFLTRVGLDIGKVWVADDGAAVAVWTTPESVEAGAVFAEIGPRMAELSGSRLAAQQQMEGLLAPHRPKEPAWFLATVGVSPDHQGKGLGSAVVLPGVEAAERAGVPAFLETSAPRNLPFYERLGFTVTADVEVPEGPRTWCMTRKPGA
modifications: Polynucleotide encoding a Synthetic Immune Receptor (SIR)
B2: 092216-G01 (protein)
chain: MALPVTALLLPLALLLHAARPLEGKPIPNPLLGLDSTGSGEDLKNVFPPEVAVFEPSKAEIAHTQKATLVCLATGFYPDHVELSWWVNGKEVHSGVCTDPQPLKEQPALNDSRYCLSSRLRVSATFWQNPRNHFRCQVQFYGLSENDEWTQDRAKPVTQIVSAEAWGRADCGITSASYHQGVLSATILYEILLGKATLYAVLVSALVLMAMVKRKDSRGRAKRSGSGATNFSLLKQAGDVEENPGPTSTMALPVTALLLPLALLLHAARPDIQMTQSPSSLSASLGERVSLTCRATQELSGYLSWLQQKPDGTIKRLIYAASTLDSGVPKRFSGNRSGSDYSLTISSLESEDFADYYCLQYAIYPYTFGGGTKLEIKGGGGSGGGGSGGGGSEVQLQQSGPELVKPGASVKMSCKASGYTFTSYFIHWVKQKPGQGLEWIGFINPYNDGSKYNEKFKGKATLTSDKSSSTAYMELSSLTSEDSAVYYCTRDDGYYGYAMDYWGQGTSVTVSSTREQKLISEEDGSGIQNPDPAVYQLRDSKSSDKSVCLFTDFDSQTNVSQSKDSDVYITDKCVLDMRSMDFKSNSAVAWSNKSDFACANAFNNSIIPEDTFFPSSDVPCDVKLVEKSFETDTNLNFQNLSVIGFRILLLKVAGFNLLMTLRLWSSRAKRSGSGVKQTLNFDLLKLAGDVESNPGPSRGHMTEYKPTVRLATRDDVPRAVRTLAAAFADYPATRHTVDPDRHIERVTELQELFLTRVGLDIGKVWVADDGAAVAVWTTPESVEAGAVFAEIGPRMAELSGSRLAAQQQMEGLLAPHRPKEPAWFLATVGVSPDHQGKGLGSAVVLPGVEAAERAGVPAFLETSAPRNLPFYERLGFTVTADVEVPEGPRTWCMTRKPGA
modifications: Synthetic Immune Receptor (SIR)
B3: 091616-Z01 (protein)
chain: MALPVTALLLPLALLLHAARPDIVMTQSPDSLAVSLGERATINCKSSQSILYSSNQKNYLAWYQQKPGQSPKLLIYWASTRESGVPDRFSGSGSGTDFTLTISSLQAEDVAVYYCHQYISSYTFGQGTKLEIKLEEQKLISEEDLGSGEDLKNVFPPEVAVFEPSKAEIAHTQKATLVCLATGFYPDHVELSWWVNGKEVHSGVCTDPQPLKEQPALNDSRYCLSSRLRVSATFWQNPRNHFRCQVQFYGLSENDEWTQDRAKPVTQIVSAEAWGRADCGITSASYHQGVLSATILYEILLGKATLYAVLVSALVLMAMVKRKDSRGRAKRSGSGATNFSLLKQAGDVEENPGPTSMDWIWRILFLVGAATGAHSFEQVQLVQSGAEVKKPGASVKVSCKASGYTFASQWMHWMRQAPGQGLEWIGWINPGNVNTKYNEKFKGRATLTVDTSTNTAYMELSSLRSEDTAVYYCARSTWYRPLDYWGQGTLVTVSSTREQKLISEEDLGSGIQNPDPAVYQLRDSKSSDKSVCLFTDFDSQTNVSQSKDSDVYITDKCVLDMRSMDFKSNSAVAWSNKSDFACANAFNNSIIPEDTFFPSSDVPCDVKLVEKSFETDTNLNFQNLSVIGFRILLLKVAGFNLLMTLRLWSSRAKRSGSGVKQTLNFDLLKLAGDVESNPGPSRGHMTEYKPTVRLATRDDVPRAVRTLAAAFADYPATRHTVDPDRHIERVTELQELFLTRVGLDIGKVWVADDGAAVAVWTTPESVEAGAVFAEIGPRMAELSGSRLAAQQQMEGLLAPHRPKEPAWFLATVGVSPDHQGKGLGSAVVLPGVEAAERAGVPAFLETSAPRNLPFYERLGFTVTADVEVPEGPRTWCMTRKPGA
modifications: Synthetic Immune Receptor (SIR)
B4: 041816-C01 (protein)
chain: MALPVTALLLPLALLLHAARPDTIVLTQSPASLAVSLGQRATISCRASESVDSYGNSFMHWYQQKPGQPPKLLIYLASNLESGVPARFSGSGSRTDFTLTIDPVEADDAATYYCQQNNYDPWTFGGGTKLEIKLEGKPIPNPLLGLDSTGSGEDLKNVFPPEVAVFEPSKAEIAHTQKATLVCLATGFYPDHVELSWWVNGKEVHSGVCTDPQPLKEQPALNDSRYCLSSRLRVSATFWQNPRNHFRCQVQFYGLSENDEWTQDRAKPVTQIVSAEAWGRADCGITSASYHQGVLSATILYEILLGKATLYAVLVSALVLMAMVKRKDSRGRAKRSGSGATNFSLLKQAGDVEENPGPTSMDWIWRILFLVGAATGAHSFEEVQLQQSGPELVKPGASVKMSCKASGYTFTSYVMHWVKQKPGQGLEWIGYINPYNDGTKYNEKFKGKATLTSDTSSSTAYMELNSLTSEDSAVYFCARPIYFDNDYFDYWGQGTTLKVSSTREQKLISEEDGSGTPFPSLAPPIMLLVDGKQQMVVVCLVLDVAPPGLDSPIWFSAGNGSALDAFTYGPSPATDGTWTNLAHLSLPSEELASWEPLVCHTGPGAEGHSRSTQPMHLSGEASTARTCPQEPLRGTPGGALWLGVLRLLLFKLLLFDLLLTCSCLCDPAGPLPSPATTTRLRALGSHRLHPATETGGREATSSPRPQPRDRRWGDTPPGRKPGSPVRAKRSGSGVKQTLNFDLLKLAGDVESNPGPSRGHMTEYKPTVRLATRDDVPRAVRTLAAAFADYPATRHTVDPDRHIERVTELQELFLTRVGLDIGKVWVADDGAAVAVWTTPESVEAGAVFAEIGPRMAELSGSRLAAQQQMEGLLAPHRPKEPAWFLATVGVSPDHQGKGLGSAVVLPGVEAAERAGVPAFLETSAPRNLPFYERLGFTVTADVEVPEGPRTWCMTRKPGA
modifications: Polynucleotide encoding a Synthetic Immune Receptor (SIR)

Tested on: target antigen-expressing cell line
Test: Jurkat NFAT-GFP assay, coculture with target cell lines expressing the respective target antigen (summary Table 10A)
Assay type: cell-based, human
Parameters: key: The signs +/−, +, 2+ etc. after the name of the cell lines indicate the relative degree of positivity on the Jurkat-NFAT-GFP assay as measured by the % GFP positive cells; +: relative degree of positivity on the Jurkat-NFAT-GFP assay as measured by the % GFP positive cells; 2+: relative degree of positivity on the Jurkat-NFAT-GFP assay as measured by the % GFP positive cells
Summary of the method: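 Coculture of SIR-bearing Jurkat NFAT-GFP reporters with target cells, ~1:2 E:T, ~4–18 h. FACS quantified % GFP+ cells, ranked semi-quantitatively against parental Jurkat-NFAT-GFP.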

| Molecule | NFAT-GFP ASSAY Positive Cell lines (coculture with L363 cells) | NFAT-GFP ASSAY Positive Cell lines (coculture with RAJI cells) | NFAT-GFP ASSAY Positive Cell lines (coculture with U266 cells) | NFAT-GFP ASSAY Positive Cell lines (coculture with HL60 cells) | NFAT-GFP ASSAY Positive Cell lines: L428 (SIR-expressing Jurkat-NFAT-GFP cells cocultured with L428, relative % GFP positive cells) |
| --- | --- | --- | --- | --- | --- |
| B1 | (+/−), L363 (+/−), | RAJI (+/−), U266 | (+/−), L363 (+/−), |  |  |
| B2 |  |  |  | HL60 (+/−) |  |
| B3 |  |  |  |  | L428 (+/−) |
| B4 | (+/−), L363 (+/−) | RAJI (+/−), U266 | (+/−), L363 (+/−) |  |  |
